How the values were obtained:
Experiment in all cases: SPR
[1] = system: L7-1C03-A5 (EsR1) L55M,H64A,F67V,S85I,F86M,H100C,R104G,P105F,K108Q,L113A,Q116S,N129H,L134M,S135Q,V137A,H139I,E147L,H151L,L170V,I174L,F177N (synthetic); details: ka 4.7e4 M-1 s-1, kd 7.8e-3 s-1
[2] = target: L7-1G06-B2 L55M,H64A,F67Y,F86M,H100C,R104G,P105F,K108Q,L113A,Q116S,L117M,L134M,S135Q,H139I,F140Y,E147L,H151L,L170V,I174L,F177K (synthetic) (UniProt P04483); details: ka 4.6e4 M-1 s-1, kd 1.9e-2 s-1
[3] = target: L7-1F08-A11 (L7-A11, EsR2) L55M,H64A,F67Y,F86M,H100C,R104G,P105F,K108Q,L113A,Q116S,L134M,S135Q,H139I,F140Y,E147L,H151L,L170V,I174L,F177K (synthetic) (UniProt P04483); details: ka 7.1e4 M-1 s-1, kd 1.7e-2 s-1
[4] = target: wt TetR(B) (Tn10, Gly inserted after Met1) (Escherichia coli) (UniProt P04483); details: ka 3.3e5 M-1 s-1, kd 3.0e-3 s-1; operator sequence used on chip not stated
[5] = system: L7-3E03-D1 (EsR4) L55M,H64A,F67Y,F86M,H100C,R104G,P105F,K108Q,L113A,Q116S,N129H,L131M,L134M,S135Q,V137A,H139I,F140Y,E147L,H151L,L170V,I174L,F177K (synthetic); details: ka 5.5e4 M-1 s-1, kd 1.1e-2 s-1

Substance: tet operator (Biacore)
- Kd [1]: 150 nM
- Kd [2]: 430 nM
- Kd [3]: 250 nM
- Kd [4]: 9 nM
- Kd [5]: 200 nM

From patent US20100105141
